# Measured values published in US12630620 (dated 2026).
# Read-outs that look alike come from different tables or passages of the source.
# T1: commercial GDF15 recombinant protein (R&D, 9279-GD) (UniProt Q99988 197-308)
# T1 chain: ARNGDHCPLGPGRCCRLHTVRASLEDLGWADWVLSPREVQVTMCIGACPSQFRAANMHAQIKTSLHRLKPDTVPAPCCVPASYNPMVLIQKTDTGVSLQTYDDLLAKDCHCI
# Columns and labels:
# [1] = target: T1, commercial GDF15 recombinant protein …; assay: SPR
# [2] = target: T1, commercial GDF15 recombinant protein …; assay: SPR
Kd [1],Kd [2],Binder
71.4 nM,–,"anti-GDF15 neutralizing monoclonal antibody G1 (antibody, V domains shown) VH: DVQLQESGPGLVKPSQSLSLTCTVTGYSITSAYAWNWIRQFPGNKLEWMGYISYSGSTSYNPSLKSRISITRDTSKNQFFLQFNSVTTEDTATYYCARGGDAEDYWGQGTTLTVSS VL: DIQMTQSPASLSVSVGETVTITCRASENIYSNLAWFQQKQGKSPQLLVYVATNLVDGVPSRFSGSGSGTQYSLKINSLQSEDFGTYYCQHFWGTPWTFGGGTKLEIK"
–,572 nM,"anti-GDF15 neutralizing monoclonal antibody G2 (antibody, V domains shown) VH: QVQLQQSGAELARPGASVKLSCKASGYTFTDYYINWVKQRTGQGLEWIGEIYPGSGNTYYNEKFKGKATLTADKSSSTAYMQLSSLTSEDSAVYFCARVRALLRPLAMDYWGQGTSVTVSS VL: QIVLSQSPAILSASPGEKVTMTCRASSSVSYMHWYQQKPGSSPKPWIYATSNLASGVPARFSGSGSGTSYSLTISRVEAEDAATYYCQQWSSNPPFTFGSGTKLEIK"
